Data published in patent publication US20170342155A1 (Amgen, published 2017).
Residue numbers refer to the chain shown, from its start.

T1: murine CCR7 K201R/N202S/G204S/T207A/L208M construct 20110094673 (mouse, UniProt P47774 25-378)
T1 construct: Murine CCR7 with five human ECL2 residues; also called KNGTL; KNGTL construct
T1 chain: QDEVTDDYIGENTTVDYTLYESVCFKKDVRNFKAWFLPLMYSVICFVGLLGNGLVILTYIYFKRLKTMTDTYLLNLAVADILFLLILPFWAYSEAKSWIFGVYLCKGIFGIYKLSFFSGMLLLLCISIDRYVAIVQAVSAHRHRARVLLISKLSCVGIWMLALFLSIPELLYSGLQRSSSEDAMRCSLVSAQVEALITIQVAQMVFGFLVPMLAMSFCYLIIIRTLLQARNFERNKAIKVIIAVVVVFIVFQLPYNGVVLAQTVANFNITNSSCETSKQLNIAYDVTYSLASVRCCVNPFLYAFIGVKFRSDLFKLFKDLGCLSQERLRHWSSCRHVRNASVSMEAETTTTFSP

T2: human CCR7 variant F44Y (20100128285) (human, UniProt P32248 25-378)
T2 sequence: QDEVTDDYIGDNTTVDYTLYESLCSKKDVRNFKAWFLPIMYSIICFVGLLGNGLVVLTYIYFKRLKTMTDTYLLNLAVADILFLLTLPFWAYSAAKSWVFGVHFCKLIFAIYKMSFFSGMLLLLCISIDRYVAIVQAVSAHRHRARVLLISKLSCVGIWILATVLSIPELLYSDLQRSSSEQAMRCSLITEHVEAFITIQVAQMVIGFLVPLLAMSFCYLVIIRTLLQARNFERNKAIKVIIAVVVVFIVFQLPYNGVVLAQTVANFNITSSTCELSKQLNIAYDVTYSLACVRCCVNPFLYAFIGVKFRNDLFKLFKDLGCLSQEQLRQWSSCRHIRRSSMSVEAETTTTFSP

T3: human CCR7 variant R201K (20100171268) (human, UniProt P32248 25-378)
T3 sequence: T2 sequence with Y20F, R177K

T4: human CCR7 variant L47V (20100122626) (human, UniProt P32248 25-378)
T4 sequence: T2 sequence with Y20F, L23V

T5: human CCR7 variant H127Y (20100135009) (human, UniProt P32248 25-378)
T5 sequence: T2 sequence with Y20F, H103Y

T6: wild-type murine CCR7 (pcDNA3.1 Neo-mouseCCR7, 20060298628) (mouse, UniProt P47774 25-378)
T6 construct: Full open reading frame as printed; Expressed on transfected 293T cells; also called mCCR7; wild-type murine CCR7 receptor
T6 sequence: T1 chain with R177K, S178N, S180G, A183T, M184L

B1: antibody 6B4.1 (antibody, V domains shown)
VH: QVQLVESGGGVVQPGRSLRLSCAASGFTFSSYGMHWVRQAPGKGLEWVAVIWYDGSKKYYADSVKGRFTISRDNSKNTLYLQMNRLRAEDTAVYYCARDGGIAVFLQDNWFDPWGQGTLVTVSS
VL: SYELTQPPSVSVSPGQRARITCSGDKLGDKYASWYQQKPGQSPLLVIYQDSKRPSGIPERFSGSNSGNTATLTISGTQAMDEADYYCQAWGSSTVIFGGGTKLTVLG
notes: Human antibody from XenoMouse hybridoma; Light = 2 and heavy = 42 is inferred from the order of the listing (light chains first)
B2: antibody 6B5.1 (antibody, human IgG2, lambda, V domains shown)
VH: B1 VH with S30R, Q107E
VL: B1 VL with R19S, S51G
notes: Human antibody from XenoMouse hybridoma; Light = 18 and heavy = 50 is inferred from the order of the listing

Experiments:
[1] = biological target: T1, murine CCR7 …; experiment: flow cytometry on transfected 293T cells, PE secondary antibody, geo mean
[2] = biological target: T2, human CCR7 variant F44Y (20100128285); experiment: as above
[3] = biological target: T3, human CCR7 variant R201K (20100171268); experiment: as above
[4] = biological target: T4, human CCR7 variant L47V (20100122626); experiment: as above
[5] = biological target: T5, human CCR7 variant H127Y (20100135009); experiment: as above
[6] = biological target: T6, wild-type murine CCR7 (pcDNA3.1 …); experiment: flow cytometry on transfected 293T cells
Description: 293T cells were transfected with each of the 22 constructs using Fugene HD Transfection Reagent (Cat #: 04709705001) (Roche Applied Sciences, Indianapolis, Ind.) according to manufacturer's protocol. DNA to Fugene HD ratio used was 1:3. […] After 48 hours, transfected cells were harvested and washed with PBS+5% FBS two times. Cells were counted using the Nexcelom Cell Counter (Nexcelom Bioscience, Lawrence, Mass.), and 250,000 cells per well were plated in a 96 well round bottom plate. Cells transfected with each construct were stained in duplicate as follows: unstained control, 6B4.1 primary Ab followed by Goat anti-human-PE secondary Ab, 6B5.1 primary Ab followed by Goat anti-human-PE secondary Ab, mAb197 primary Ab followed by Goat anti-mouse-PE secondary Ab, and the controls of secondary Ab Goat anti-mouse-PE only and Goat anti-human-PE only. The cells were visualized by flow cytometry and geo means were generated and analyzed.

Binder | binding result [1] | binding result [2] | binding result [3] | binding result [4] | binding result [5] | binding result [6]
B1 | binds | binds | binds | binds | binds | no binding
B2 | binds | binds | binds | binds | binds | no binding
